# Measurements: paper PMC3481545 (Biochemistry, 2012)
# T1: BMP-7 (UniProt P18075 293-431)
# T1 sequence (looked up): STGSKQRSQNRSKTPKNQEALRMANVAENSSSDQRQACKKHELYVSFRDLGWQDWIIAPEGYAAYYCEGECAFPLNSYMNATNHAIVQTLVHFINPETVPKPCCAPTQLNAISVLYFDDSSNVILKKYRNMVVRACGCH
# B1: human recombinant BMPR-II ECD, wild type (domain or fragment, UniProt Q13873 26-150, looked up)
# chain: ASQNQERLCAFKDPYQQDLGIGESRISHENGTILCSKGSTCYGLWEKSKGDINLVKQGCWSHIGDPQECHYEECVVTTTPPSIQNGTYRFCCCSTDLCNVNFTENFPPPDTTPLSPPHSFNRDET
# B2: BMPR-II ECD G47N (domain or fragment, human, UniProt Q13873 26-150, looked up)
# chain: ASQNQERLCAFKDPYQQDLGINESRISHENGTILCSKGSTCYGLWEKSKGDINLVKQGCWSHIGDPQECHYEECVVTTTPPSIQNGTYRFCCCSTDLCNVNFTENFPPPDTTPLSPPHSFNRDET
# B3: BMPR-II ECD S107P (domain or fragment, human, UniProt Q13873 26-150, looked up)
# chain: ASQNQERLCAFKDPYQQDLGIGESRISHENGTILCSKGSTCYGLWEKSKGDINLVKQGCWSHIGDPQECHYEECVVTTTPPPIQNGTYRFCCCSTDLCNVNFTENFPPPDTTPLSPPHSFNRDET
# B4: BMPR-II ECD Y40G (domain or fragment, human, UniProt Q13873 26-150, looked up)
# chain: ASQNQERLCAFKDPGQQDLGIGESRISHENGTILCSKGSTCYGLWEKSKGDINLVKQGCWSHIGDPQECHYEECVVTTTPPSIQNGTYRFCCCSTDLCNVNFTENFPPPDTTPLSPPHSFNRDET
# B5: BMPR-II ECD Y40P (domain or fragment, human, UniProt Q13873 26-150, looked up)
# chain: ASQNQERLCAFKDPPQQDLGIGESRISHENGTILCSKGSTCYGLWEKSKGDINLVKQGCWSHIGDPQECHYEECVVTTTPPSIQNGTYRFCCCSTDLCNVNFTENFPPPDTTPLSPPHSFNRDET
# B6: BMPR-II ECD Y40Q (domain or fragment, human, UniProt Q13873 26-150, looked up)
# chain: ASQNQERLCAFKDPQQQDLGIGESRISHENGTILCSKGSTCYGLWEKSKGDINLVKQGCWSHIGDPQECHYEECVVTTTPPSIQNGTYRFCCCSTDLCNVNFTENFPPPDTTPLSPPHSFNRDET
# B7: BMPR-II ECD Y40R (domain or fragment, human, UniProt Q13873 26-150, looked up)
# chain: ASQNQERLCAFKDPRQQDLGIGESRISHENGTILCSKGSTCYGLWEKSKGDINLVKQGCWSHIGDPQECHYEECVVTTTPPSIQNGTYRFCCCSTDLCNVNFTENFPPPDTTPLSPPHSFNRDET
# B8: GDF-5 (ligand, UniProt P43026 382-501, looked up)
# chain: APLATRQGKRPSKNLKARCSRKALHVNFKDMGWDDWIIAPLEYEAFHCEGLCEFPLRSHLEPTNHAVIQTLMNSMDPESTPPTCCVPTRLSPISILFIDSANNVVYKQYEDMVVESCGCR
# B9: Chimera BAB: BMPR-II ECD with the ActR-IIB A-loop (domain or fragment)
# chain: ASQNQERLCAFKDPYQQDLGIGESRISHENGTILCSKGSTCYGLWEKSKGDINLVKQGCWDDFNCYDRQCVVTTTPPSIQNGTYRFCCCSTDLCNVNFTENFPPPDTTPLSPPHSFNRDET
# Assays:
# Experiment in all cases: SPR
# BMP-7 = target: T1, BMP-7
# BMPR-II ECD Y40R = target: B7
# [1] = target: B1
# BMPR-II ECD Y40P = target: B5
# BMPR-II ECD Y40G = target: B4
# BMPR-II ECD S107P = target: B3
# BMPR-II ECD G47N = target: B2
# BMPR-II ECD Y40Q = target: B6
# GDF-5 = target: B8
# Activin = Activin (UniProt P08476 311-426)
binder,measurement,setting,value
B1,Kd,BMP-7,135 µM
B2,Kd,BMP-7,92 µM
B3,Kd,BMP-7,43 µM
B4,Kd,BMP-7,138 µM
B5,Kd,BMP-7,157 µM
B6,Kd,BMP-7,129 µM
B7,Kd,BMP-7,117 µM
B8,Kd,BMPR-II ECD Y40R,117 µM
same,Kd,[1],221 µM
same,Kd,BMPR-II ECD Y40P,200 µM
same,Kd,BMPR-II ECD Y40G,123 µM
same,Kd,BMPR-II ECD S107P,90 µM
same,Kd,BMPR-II ECD G47N,136 µM
same,Kd,BMPR-II ECD Y40Q,175 µM
B9,Kd,GDF-5,197 µM
same,Kd,BMP-7,59 µM
same,Kd,Activin,5 µM
